One assay concerns the target T1, Human PCNA (human, UniProt P12004 1-261).
T1 construct: PCNA (proliferating cell nuclear antigen), human; also called native PCNA; purified PCNA; source: E. coli BL21, purified (IMAC, gel filtration on Superdex 200)
Description: pull-down; GST-SNM1A peptides held on glutathione-agarose beads, washed with PBS with 250 mM to 1 M salt; 150 ng purified PCNA or PCNA^ub added, tumbled at 4 °C for 1 h, washed as before; immunoblot for PCNA, PCNA^ub, GST. The note with it: both partners purified.

Assay [1] addresses T2, Lysine 164 monoubiquitinated human PCNA (PCNA^ub) (human | , UniProt P12004 1-261; P0CG48 1-76, monoubiquitinated at lysine 164 | C-terminus joined to lysine 164 of PCNA).
T2 construct: PCNA (proliferating cell nuclear antigen), human, carrying one ubiquitin on lysine 164; ubiquitin, conjugated in vitro to lysine 164 of PCNA; also called ubiquitinated PCNA; lysine-164 monoubiquitinated PCNA
The description is as above. The note with it: both partners purified.

T1 sequence (P12004 whole entry): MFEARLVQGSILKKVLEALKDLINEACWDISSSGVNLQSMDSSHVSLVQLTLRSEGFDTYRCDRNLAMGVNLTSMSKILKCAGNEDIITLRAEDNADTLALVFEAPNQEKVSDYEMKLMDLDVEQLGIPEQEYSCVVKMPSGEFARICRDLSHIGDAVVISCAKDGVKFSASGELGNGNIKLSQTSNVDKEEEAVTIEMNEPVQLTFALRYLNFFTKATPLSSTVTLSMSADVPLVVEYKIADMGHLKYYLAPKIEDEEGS

B1: GST-tagged SNM1A PIP box peptide (GST-PIP) (domain or fragment, human)
chain: ARHPSTKVMKQMDIGVYFGLPPKRKEEKLL
notes: SNM1A (DCLRE1A), human, stretch spanning the PIP box; numbering as for NP_001258745.1; Cloned into pET-41b (MfeI/SalI); also called wildtype PIP box peptide; not shown: GST, N-terminal, kept
Turning to B1, the binding result (with Human PCNA; in assay [1]) was “binds” in each case.

B2: GST-tagged SNM1A peptide spanning the PBZ and UBZ motifs (GST-PBZ-UBZ) (domain or fragment, human)
chain: RPVYDGYCPNCQMPFSSLIGQTPRWHVFECLDSPPRSETECPDGLLCTSTIPFHYKRYTHFLLAQSRAG
notes: SNM1A (DCLRE1A), human, stretch spanning the UBZ and PBZ motifs; numbering as for NP_001258745.1; Cloned into pET-41b; also called UBZ/PBZ peptide; PBZ-plus-UBZ; not shown: GST, N-terminal, kept
For B2, the binding result in assay [1] is “binds”.

For the origin of these results see paper PMC11199599, “SNM1A is crucial for efficient repair of complex DNA breaks in human cells” (Nature Communications, 2024).
